We go through 17 molecules from article PMC2628434.

The target in data set [1] is T1, LuxR (Vibrio harveyi, UniProt P21308 1-205).
T1 sequence: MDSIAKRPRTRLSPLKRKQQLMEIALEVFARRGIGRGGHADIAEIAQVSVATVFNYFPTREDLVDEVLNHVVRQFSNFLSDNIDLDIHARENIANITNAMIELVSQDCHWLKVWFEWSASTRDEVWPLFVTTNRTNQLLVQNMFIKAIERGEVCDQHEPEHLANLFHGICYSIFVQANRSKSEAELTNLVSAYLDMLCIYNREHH
The data set can be described thus: fluorescence anisotropy. (Polarisation of emitted light reports the rotation of a fluorescent probe.)

Data set [2] concerns the target T1, LuxR. The data set can be described thus: fluorescence anisotropy. The source holds these as a separate data set.

Changes are numbered by the printed parent chain. In names and notes the source's numbering stands. Read-outs that look alike come from different tables or passages of the source.

B1: Consensus (dsDNA)
DNA 1: ACTGATATTGATAAATTTATCAATAATGACT
DNA 2: AGTCATTATTGATAAATTTATCAATATCAGT
What is called Kd is the constant that tells how readily two partners part at equilibrium. In turn, B1 displayed a Kd in the data set with LuxR [1] of 24 ± 4 nM.

B2: VPA0649 (dsDNA)
DNA 1: ATTCCTTATTTACCAATTTATAAACTATGAA
DNA 2: TTCATAGTTTATAAATTGGTAAATAAGGAAT
As for B2, the dissociation constant Kd in the data set with LuxR [1] amounted to 30 ± 8 nM.

B3: VPA0197/8 (dsDNA)
DNA 1: TAAGGTAAATAATTATTTTAACAATAATTAA
DNA 2: TTAATTATTGTTAAAATAATTATTTACCTTA
Turning to B3, the Kd with LuxR [1] was 68 ± 11 nM.

B4: VP0944/5 (dsDNA)
DNA 1: TAGAGTTAGTATCAATTTAATCAATAAGATA
DNA 2: TATCTTATTGATTAAATTGATACTAACTCTA
B4: in the data set with LuxR [1], binding was put at a Kd of 30 ± 7 nM.

B5: Negative control (dsDNA)
DNA 1: ACTGACTGACTGACTGACTGACTGACTGACT
DNA 2: AGTCAGTCAGTCAGTCAGTCAGTCAGTCAGT
B5 registered a Kd with LuxR [2] of 136 ± 63 nM.

B6: qrgB WT (dsDNA)
DNA 1: TGTTTATATTGAGTTCACAATCAATACCGATCA
DNA 2: TGATCGGTATTGATTGTGAACTCAATATAAACA
B6 registered a Kd in the data set with LuxR [1] of 27 ± 3 nM.

B7: qrgB A2C A17C (dsDNA)
DNA 1: B6 DNA 1 with A8C, A23C
DNA 2: B6 DNA 2 with T11G, T26G
On to B7, for which the Kd in the data set with LuxR [1] was 242 ± 46 nM.

B8: qrgB A2C (dsDNA)
DNA 1: B6 DNA 1 with A8C
DNA 2: B6 DNA 2 with T26G
B8 came in with a Kd with LuxR [1] of 27 ± 4 nM.

B9: qrgB A17C (dsDNA)
DNA 1: B6 DNA 1 with A23C
DNA 2: B6 DNA 2 with T11G
Regarding B9, in the data set with LuxR [1], the dissociation constant (Kd) is 43 ± 6 nM.

B10: qrgB A6C (dsDNA)
DNA 1: B6 DNA 1 with A12C
DNA 2: B6 DNA 2 with T22G
Regarding B10, in the data set with LuxR [1], the dissociation constant Kd is 44 ± 5 nM.

B11: qrr4 A17C (dsDNA)
DNA 1: CATTTTTCTGATAAATGTATTCGTAGCAATG
DNA 2: CATTGCTACGAATACATTTATCAGAAAAATG
As to B11, the dissociation constant (Kd) in the data set with LuxR [1] worked out at 38 ± 5 nM.

B12: qrr4 A6C A17C (dsDNA)
DNA 1: B11 DNA 1 with A11C
DNA 2: B11 DNA 2 with T21G
Molecule B12 came in with a Kd with LuxR [1] of 112 ± 27 nM.

B13: qrr4 T15C (dsDNA)
DNA 1: B11 DNA 1 with T20C, C22A
DNA 2: B11 DNA 2 with G10T, A12G
The molecule B13 returned a Kd with LuxR [1] of 27 ± 4 nM.

B14: qrr4 WT (dsDNA)
DNA 1: B11 DNA 1 with C22A
DNA 2: B11 DNA 2 with G10T
As to B14, binding in the data set with LuxR [1] was characterised by a dissociation constant (Kd) of 35 ± 4 nM.

B15: qrr4 A6C (dsDNA)
DNA 1: B11 DNA 1 with A11C, C22A
DNA 2: B11 DNA 2 with G10T, T21G
B15 had a Kd with LuxR [1] of 68 ± 11 nM.

B16: VP0057/8 (dsDNA)
DNA 1: AACATTACTGATAAATTAGATATTTATGGCT
DNA 2: AGCCATAAATATCTAATTTATCAGTAATGTT
Molecule B16 yielded a Kd in the data set with LuxR [1] of 47 ± 8 nM.

B17: VPA0226/7 (dsDNA)
DNA 1: ACCAAAATTGATAAAATGAATAATTAGATAT
DNA 2: ATATCTAATTATTCATTTTATCAATTTTGGT
Turning to B17, in the data set with LuxR [1], the affinity, expressed as Kd, was 73 ± 12 nM.
